Loss of ACE2 fluorescence, DPF assay and reduction of Pus8AA +LMY➔A-Cherry fluorescence, DPF assay data for one substance are collected here from paper doi:10.1101/2024.03.07.583884.

Assay [1] addresses mACE 1-357 ACE2-Cherry hybrid (mouse | human) (UniProt Q8R0I0).
The target in assay [2] is Pus8AA+LMY➔A-ACE2-Cherry (human) (UniProt Q9BYF1).

In the case of “OM.BA.1-RBD-β2AR-GFP (from UniProt P0DTC2 333-529) (domain or fragment)”, the loss of ACE2 fluorescence, DPF assay in assay [1] was determined as 24.8%. The reduction of Pus8AA +LMY➔A-Cherry fluorescence, DPF assay in assay [2] was determined as 17.2%.
